Tests used:
[1] = biological target: Biotinylated HCII 1-75 (human); assay: SPR; BIAcore X, 25°C; biotinylated HCII 1-75 on streptavidin-coated chip; thrombin 0-30 μM flowed at 20 μL/minute in 10 mM HEPES, 150 mM NaCl, 0.005% Tween-20, pH 7.7; one site binding model of plateau responses
α-thrombin [2] = biological target: α-thrombin (UniProt P00734)
α-thrombin [3] = biological target: α-thrombin (UniProt P00734); assay: ELISA; competition: HCII 1-75 immobilised on microtiter wells; competitor peptides added with 5 nM α-thrombin; ratio of absorbance with and without competitor; IC50 by linear regression of log-transformed plots
α-thrombin [4] = biological target: α-thrombin (UniProt P00734); remark: listed apart in the source
α-thrombin [5] = biological target: α-thrombin (UniProt P00734); assay: SPR; competition: BIAcore X, 25°C; biotinylated HCII 1-75 on streptavidin-coated chip; peptides combined with 250 nM thrombin immediately before flowing over the chip; Ki from IC50 and the KD of 340 nM
α-thrombin [6] = biological target: α-thrombin (UniProt P00734); remark: listed apart in the source

Row | Substance | Kd [1] | IC50 (α-thrombin [3]) | concentration required to double the thrombin clotting time of diluted citrated human plasma (α-thrombin [4]) | Ki (α-thrombin [5]) | other results
1 | α-thrombin (from UniProt P00734 364-622) (enzyme) | 340 nM | – | – | – | –
2 | Biotinylated HCII 1-75 (domain or fragment) | – | – | – | – | concentration required to double the thrombin clotting time (data not shown) (α-thrombin [2]): 11.7 µM
3 | FPR-ck-thrombin (thrombin inactivated at its active site using D-Phe-L-Pro-L-Arg chloromethylketone) (from UniProt P00734 364-622) (enzyme) | 330 nM | – | – | – | –
4 | sulfo-Hir 54-65 (synthetic peptide containing the C-terminal 12 residues of hirudin variant 1, with Tyr63 sulfated) (from UniProt P01050 54-65) | – | 140 nM | 0.15 µM | 54 nM | –
5 | HCII 1-75 (recombinant peptide containing the first 75 residues of human heparin cofactor II and a nonapeptide N-terminal MGSH6 tag) (domain or fragment) | – | 11000 nM | 13 µM | 2600 nM | concentration required to double the thrombin clotting time, unmodified polypeptide compared with the biotinylated one (data not shown) (α-thrombin [2]): 12.8 µM; fold reduction of the apparent second-order rate constant of inhibition of 14 nM thrombin by 140 nM plasma-derived HCII with 55 μg/mL standard heparin, 250 μM peptide (Figure 5A) (α-thrombin [6]): 2.8 fold; fold reduction of the apparent second-order rate constant of inhibition of thrombin by plasma-derived HCII with 1.4 μM dermatan sulfate, 250 μM peptide (Figure 5B) (α-thrombin [6]): 7 fold
